Test results taken from US20250122278A1, “ANTI-INTERLEUKIN-9 ANTIBODY AND USE THEREOF” (GUANGDONG KEGUANDA PHARMACEUTICAL TECHNOLOGY CO., LTD., priority 2022, published 2025).
Positions count from the first letter of the chain named.

Tests used:
[1] = biological target: T1, IL-9-His recombinant protein (UniProt P15248 19-144); experiment: BLI (ForteBio), antibody on Protein A sensor, antigen 7.81-125 nM in solution
T1 construct: range 19-144; used as coating antigen in the ELISAs; also called IL9 (19-144)-His; not shown: His tag, C-terminal by the vector name

[2] = biological target: T1, IL-9-His recombinant protein; experiment: ELISA on coated IL-9-His, OD450; unit taken from the x axis, the table prints none
Protocol: (§3) ELISA was conducted according to a standard protocol to determine the affinity of a purified antibody for the IL-9-His recombinant protein. In short, the IL-9-His recombinant protein was diluted with sterile PBS and added at 100 μL/well to a 96-well plate. The plate was incubated at 4° C. overnight and then blocked with a blocking buffer. 100 μL of a purified anti-IL-9 antibody serially diluted was added to the plate, and the plate was incubated for 1 h at room temperature. PBS was added to a control well. The plate was washed with PBST 3 times. Then 100 μL of horseradish peroxidase (HRP)-labeled anti-mouse IgG H&L (BIODRAGON, CAT #BF03001) was added, and the plate was incubated for 1 h at room temperature. The plate was washed with PBST 3 times. Then a chromogenic reaction was conducted with a 3,3′,5,5′-tetramethylbenzidine (TMB) chromogenic solution at room temperature. An OD value in each well was read by a microplate reader. Data was processed with PRISM GraphPad, and curves were plotted. The EC₅₀ value for each candidate antibody was calculated.

[3] = biological target: T2, biotin-conjugated IL-9-Fc (Biotin-IL-9-Fc) (UniProt P15248 19-144, biotin-conjugated (sites not given)); experiment: flow cytometry blocking assay (IL9-IL9R blocking determination): serially diluted antibody against the binding of Biotin-IL-9-Fc to 293-IL-9R cells (IL-9R), MFI; unit taken from the x axis, the table prints none
T2 construct: range 19-144; also called Fc-IL-9 recombinant protein; Fc-IL-9; not shown: Fc tag (Fc2 in the vector name pLVX-Fc2-IL9 (19-144)-Puro)

IL-9 = biological target: T3, IL-9 (Homo sapiens, UniProt P15248); experiment: ELISA binding of humanized antibodies to the target antigen; conditions: ELISA of culture supernatant of 293F cells, control chimeric antibody CA1
T3 construct: pcDNA3.4-IL9 (19-144)-His (P15248); His (C); made in house; host or cells: 293F cells (transient transfection)
Protocol: ELISA was conducted according to a standard protocol to determine the affinity of a purified antibody for the IL-9-His recombinant protein. In short, the IL-9-His recombinant protein was diluted with sterile PBS and added at 100 μL/well to a 96-well plate. The plate was incubated at 4° C. overnight and then blocked with a blocking buffer. 100 μL of a purified anti-IL-9 antibody serially diluted was added to the plate, and the plate was incubated for 1 h at room temperature. PBS was added to a control well. The plate was washed with PBST 3 times. Then 100 μL of horseradish peroxidase (HRP)-labeled anti-mouse IgG H&L (BIODRAGON, CAT #BF03001) was added, and the plate was incubated for 1 h at room temperature. The plate was washed with PBST 3 times. Then a chromogenic reaction was conducted with a 3,3′,5,5′-tetramethylbenzidine (TMB) chromogenic solution at room temperature. An OD value in each well was read by a microplate reader. Data was processed with PRISM GraphPad, and curves were plotted. The EC50 value for each candidate antibody was calculated.
Humanized antibody expression vectors carrying a designed heavy-chain or light-chain sequence were transiently transfected into 293F cells in pairs, and then a resulting culture supernatant was collected. According to a standard protocol (with reference to part 5.1 in Example 1), with a human-mouse chimeric antibody CA1 constructed with VH and VL of the original murine antibody as a control, the binding of a humanized antibody to a target antigen was detected by ELISA. The method for ELISA was the same as described in 5.1 of Example 1. […] In the follow-up experiments, the four combinations of VH1−VL2, VH1−VL4, VH2−VL4, and VH3−VL4 (hu.CA1 to hu.CA4) were taken as examples for antibody purification and function testing. […]

[4] = test system: bleomycin mouse model of pulmonary fibrosis; experiment: Bleomycin mouse pulmonary fibrosis model; assay type: in vivo
Protocol: (§1) 6 to 8-week-old male C57BL/6J mice (purchased from Guangdong Sijiajingda Biotechnology Co., Ltd., license No.: SCXK (Guangdong) 2020-0052) were grouped, modeled, and administered according to the protocols shown in Tables 6 and 7 below. The modeling with bleomycin (Nippon Kayaku, 15 mg powder, and dose: 1.5 mg/kg) and silica (SiO2, sigma, USA, S5631-500 g, and dose: 2.5 mg/mouse) was started on day 0 (DO). The administration was started on day 1 (D1), and normal saline was adopted as a solvent for an antibody. A positive drug pirfenidone (Beijing Kangdini Pharmaceutical Co., Ltd., 100 mg capsule) was adopted in a positive control group, and the humanized antibody hu.CA1 (VH1−VL2) of the present application was adopted in an anti-IL-9 antibody group.
(§2) A body weight of each mouse was measured every day. After the bleomycin model group was administered for 21 d and the silica model group was administered for 30 d, mice were sacrificed to collect lung tissues. The lung tissues each were stained to detect pathological changes in the lung tissues. Specifically, a degree of alveolar inflammation was detected through HE staining (an HE staining kit was purchased from Shanghai Beyotime Biotechnology, C0105M). A degree of pulmonary fibrosis was detected through Masson staining (a Masson staining kit was purchased from Nanjing Jiancheng Institute of Biological Engineering, D026-1-2). Scoring criteria for the HE staining and Masson staining were shown in Table 8 and Table 9 below, respectively (as shown in references: Matute-Bello G, Downey G, Moore B B, et al. An official American Thoracic Society workshop report: features and measurements of experimental acute lung injury in animals. Am J Respir Cell Mol Biol. 2011; 44 (5): 725-738. doi: 10.1165/rcmb.2009-0210ST and Lee Hyun Ju, Goo Jin Mo, Kim Na Ra et al. Semiquantitative measurement of murine bleomycin-induced lung fibrosis in in vivo and postmortem conditions using microcomputed tomography: correlation with pathologic scores—initial results. [J].Invest Radiol, 2008, 43: 453-60).

[5] = test system: silica mouse model of pulmonary fibrosis; experiment: Silica mouse pulmonary fibrosis model; assay type: in vivo, C57BL/6J mice
Protocol: as §1, §2

IL-9 antigen protein = biological target: T4, IL-9 antigen protein (Homo sapiens, UniProt P15248); experiment: ForteBio (BLI) affinity detection; assay type: binding; conditions: antibody immobilized on Protein A sensor, antigen 7.81-125 nM
T4 construct: pcDNA3.4-IL9 (19-144)-His (P15248) and pLVX-Fc2-IL9 (19-144)-Puro; made in house; host or cells: 293F cells (transient transfection)
Protocol: The affinity of a humanized antibody was detected by ForteBio (BLI). The chimeric (as a control) and humanized antibodies were immobilized with a Protein A sensor (SARTORIUS, Cat #18-5010) at an immobilization height of about 1 nm. An antigen protein sample was serially diluted with PBS to 125 nM, 62.5 nM, 31.25 nM, 15.625 nM, 7.81 nM, and 0 nM. An affinity detection procedure was as follows: equilibration for 60 s, binding for 180 s, and dissociation for 180 s.

[6] = biological target: T2, biotin-conjugated IL-9-Fc …; experiment: flow cytometry blocking assay (IL-9-IL-9R blocking determination): serially diluted chimeric antibody against the binding of Biotin-IL-9-Fc to 293-IL-9R cells (IL-9R), MFI; unit taken from the x axis, the table prints none
Protocol: The plate was washed with PBS once. […] Washing was conducted with PBS, and then resuspension was conducted with PBS. Flow cytometry was conducted.

[7] = biological target: T1, IL-9-His recombinant protein; experiment: ELISA on IL-9-His, 293F culture supernatant, antibody concentration 2 µg/mL (second well)
Protocol: as §3

[8] = biological target: T1, IL-9-His recombinant protein; experiment: ELISA on IL-9-His, 293F culture supernatant, antibody concentration 2 µg/mL
Protocol: as §3

[9] = biological target: T1, IL-9-His recombinant protein; experiment: ELISA on IL-9-His, 293F culture supernatant, antibody concentration 1 µg/mL (second well)
Protocol: as §3

[10] = biological target: T1, IL-9-His recombinant protein; experiment: ELISA on IL-9-His, 293F culture supernatant, antibody concentration 1 µg/mL
Protocol: as §3

T1 sequence (P15248 19-144 limits assumed, form in doubt): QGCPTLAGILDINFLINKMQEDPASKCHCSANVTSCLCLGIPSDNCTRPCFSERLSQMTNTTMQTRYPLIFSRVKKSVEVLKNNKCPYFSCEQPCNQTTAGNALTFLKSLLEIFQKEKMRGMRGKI
T4 sequence (P15248 19-144): as the sequence (P15248 19-144 limits assumed, form in doubt) above
T2 sequence (P15248 19-144 limits assumed, form in doubt): as above
T3 sequence (P15248 19-144): as the sequence (P15248 19-144 limits assumed, form in doubt) above

B1: humanized antibody VH1-VL2 (hu.CA1) (antibody, V domains shown)
VH: EVQLKQSGAEVMKPGASVKVSCKATGYTFTGYWIEWVRLAPGHGLEWMGEILPGSGSTNYNQKFQGRVTFTADTSINTAYMELSRLRSDDTAIYYCARRTYYYGIPEDYWGQGTLVTVSS
VL: DIVMTQSQKFFSTSTGDRVTITCRASQNVGTNVAWHQQKPGQSPKPLIYSASYRYSGVPSRFTGSGSGTDFTLTISNLQSEDFAEYFCQQYNSYPLTFGAGTKLEIK
notes: IgG1 / kappa by the vectors pcDNA3.4-IgG1 and pcDNA3.4-IgKc; also called humanized VH1-VL2 antibody
B1 was tested, and the Kd [1] was 2.38 nM, the koff [1] was 0.00253 s⁻¹ and the kon [1] was 1.07e+06 M⁻¹ s⁻¹. The EC50 [2] was 0.035 µg/mL, the EC50 [3] was 5.89 µg/mL and the “binding to IL-9” value (IL-9) was “bind to IL-9 with high affinity”. For the same molecule, the “collagen fibers and fibrosis regions of lung tissues (Masson staining)” value ([4]; bleomycin model, 21 d) was “significantly reduced”, the “inflammation score compared with pirfenidone group” value ([4]; bleomycin model, 21 d, HE staining) was “slightly lower than the pirfenidone group” and the inflammation score ([4]; bleomycin model, 21 d, HE staining, FIG. 9B) was “significantly reduce an inflammation score”. For the same molecule, the fibrosis score ([4]; bleomycin model, 21 d, Masson staining, FIG. 10B) was “significantly reduce a fibrosis score”, the “lung tissue structures (HE staining)” value ([4]; bleomycin model, 21 d, antibody 100 μg i.p. every other day, pirfenidone 300 mg/kg intragastric daily) was “improved” and the “body weights over time” value ([4]; bleomycin model, compared with negative and positive control groups, FIG. 8A) was “changed in a same trend”. For the same molecule, the safety ([4]; conclusion from body weights in bleomycin and silica models) was “excellent safety”, the “collagen fibers and fibrosis regions of lung tissues (Masson staining)” value ([5]; 30 d) was “significantly reduced” and the inflammation score ([5]; 30 d, HE staining, FIG. 11B) was “significantly reduce an inflammation score”. For the same molecule, the fibrosis score ([5]; 30 d, Masson staining, FIG. 12B) was “reduce a fibrosis score”, the “lung tissue structures (HE staining)” value ([5]; 30 d, antibody 100 μg i.p. every other day, pirfenidone 300 mg/kg intragastric daily) was “improved” and the “body weights over time” value ([5]; compared with negative and positive control groups, FIG. 8B) was “changed in a same trend”. It also gave a Koff (IL-9 antigen protein) of 0.002535 s⁻¹ and a Kon (IL-9 antigen protein) of 1.066e+06 M⁻¹ s⁻¹.

B2: CA1: human-mouse chimeric IgG1/kappa antibody with VH and VL of murine 38-D8-C7-G9 (antibody, V domains shown)
VH: EVQLKQSGAELMKPGASVKLSCKATGYTFTGYWIEWVKLRPGHGLEWIGEILPGSGSTNYNEEFKGKATFTADTSSNTAYMQLNSLTTEDSAIYYCARRTYYYGIPEDYWGQGTSVTVSS
VL: B1 VL with F11M, T15V, T20S, I21V, R24K, S60D, L78V, F83L, I106L
B2 was tested, and the Koff (IL-9 antigen protein) was 0.0009336 s⁻¹ and the Kon (IL-9 antigen protein) was 2.13e+06 M⁻¹ s⁻¹.

B3: humanized antibody VH1-VL4 (hu.CA2) (antibody, V domains shown)
VH: B1 VH
VL: B1 VL with Q8P, F11L, T13A, T15V, R24K, S80P
notes: IgG1 / kappa by the vectors pcDNA3.4-IgG1 and pcDNA3.4-IgKc; also called humanized VH1-VL4 antibody
For B3, the Kd [1] was 1.89 nM, the koff [1] was 0.00221 s⁻¹ and the kon [1] was 1.16e+06 M⁻¹ s⁻¹. For the same molecule, the EC50 [2] was 0.0127 µg/mL, the EC50 [3] was 8.18 µg/mL and the “binding to IL-9” value (IL-9) was “bind to IL-9 with high affinity”. It also gave a Koff (IL-9 antigen protein) of 0.002206 s⁻¹ and a Kon (IL-9 antigen protein) of 1.165e+06 M⁻¹ s⁻¹.

B4: humanized antibody VH2-VL4 (hu.CA3) (antibody, V domains shown)
VH: B1 VH with K5V, H43Q, I76T, R85S, D89E
VL: B1 VL with Q8P, F11L, T13A, T15V, R24K, S80P
notes: IgG1 / kappa by the vectors pcDNA3.4-IgG1 and pcDNA3.4-IgKc
In the case of B4, the EC50 [2] is reported as 0.0329 µg/mL and the EC50 [3] is reported as 11.7 µg/mL.

B5: humanized antibody VH3-VL4 (hu.CA4) (antibody, V domains shown)
VH: B1 VH with K5V, H43Q, F64L, I76T, S84R, R85S
VL: B1 VL with Q8P, F11L, T13A, T15V, R24K, S80P
notes: as for B4
B5 showed an EC50 [2] of 0.0323 µg/mL and an EC50 [3] of 11.3 µg/mL.

B6: 29-B9-F5-B6 chimeric antibody (CA3) (antibody, V domains shown)
VH: EVQLQESGAELMKPGASVKISCKATGYTFSSYWIEWVKQRPGHGLEWIGQILPGSGSNNYNERFKGKATFTADTSSNTAYMQLSSLTSEDSAVYYCAREGNYGEAWFAYWGQGTLVTVSA
VL: DILLTQSPATLSVTPGDSVSLSCRASQSISNNLHWYQQKSHESPRLLIKYASQSMSGIPSRFSGSGSGTDFTLSINSVETEDFGMYFCQQSNSWPLTFGAGTKLELK
B6 was tested, and the EC50 [6] was 8.47 µg/mL, the “ELISA OD450” value [7] was 2.45 OD450 and the “ELISA OD450” value [8] was 2.56 OD450. For the same molecule, the “ELISA OD450” value [9] was 2.62 OD450 and the “ELISA OD450” value [10] was 2.71 OD450.

B7: 22-F2-E9-C8 chimeric antibody (CA4) (antibody, V domains shown)
VH: EVQVVESGPGLVKPSQSLSLTCSVTGSSFTSGYYWNWIRQFPGNKLEWMGYIRYDGSNNYNPSLKNRISITRDTSKNQFFLKLNSVTSEDTATYYCASYGSSYDAMDYWGQGTSVTVSS
VL: DIQLTQPPASLSASVGETVTITCRASENIDSYLAWYQQKQGKSPQLLVYAATLLADGVPSRFSGSGSGTQYSLKINSLQSEDVARYYCQHYYSTPWTFGGGTKLELK
B7 was tested, and the EC50 [6] was 2.96 µg/mL, the “ELISA OD450” value [7] was 2.43 OD450 and the “ELISA OD450” value [8] was 2.45 OD450. For the same molecule, the “ELISA OD450” value [9] was 2.59 OD450 and the “ELISA OD450” value [10] was 2.63 OD450.

B8: 31-D6-B8-B8 chimeric antibody (CA2) (antibody, V domains shown)
VH: B7 VH with V4L, V5K, S27Y, F29S, N58S, Y60H, S88T, S101I, S102T
VL: B7 VL
In the case of B8, the EC50 [6] is reported as 15.8 µg/mL, the “ELISA OD450” value [7] is reported as 2.46 OD450 and the “ELISA OD450” value [8] is reported as 2.49 OD450. For the same molecule, the “ELISA OD450” value [9] was 2.62 OD450 and the “ELISA OD450” value [10] was 2.66 OD450.
